The results in this text go back to patent US20180127493A1 (ESBATECH AN ALCON BIOMEDICAL RESEARCH UNIT, published 2018).

Changes are numbered by the printed parent chain.

In experiment [1] the target is VEGF (as used in the VEGFR competition ELISA). The experiment is described as follows: competition ELISA, VEGF binding to hVEGFR1; ratio to reference Luc. For orientation: ELISA stands for enzyme-linked immunosorbent assay.
For experiment [2], the target named is T1, recombinant human VEGF165 (PeproTech EC Ltd.) (human, UniProt P15692-4 27-191).
T1 construct: Amine-coupled to a CM4 chip; also called hVEGF165
T1 sequence (P15692 other isoform, or with tags, fused parts or gaps limits assumed, form in doubt): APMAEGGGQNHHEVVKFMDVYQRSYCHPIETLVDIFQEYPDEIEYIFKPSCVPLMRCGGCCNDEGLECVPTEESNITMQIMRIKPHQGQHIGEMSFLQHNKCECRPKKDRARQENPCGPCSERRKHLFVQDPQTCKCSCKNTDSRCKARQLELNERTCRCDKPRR
The experiment is described as follows: SPR, BIAcore T100, hVEGF165 amine-coupled on CM4 chip, scFv as analyte. The method, then: The Biacore-binding ability of scFvs was tested and the binding affinity was measured using the exemplary surface plasmon resonance method with BIAcore™-T100. […] For the surface plasmon resonance experiment, carboxymethylated dextran biosensor chips (CM4, GE Healthcare) were activated with N-ethyl-N′-(3-dimethylaminopropyl) carbodiimide hydrochloride and N-hydroxysuccinimide according to the supplier's instructions. […] The 4th flow cell of each chip was treated similarly except no proteins were immobilized prior to blocking, and the flow cell was used as in-line reference. […] The apparent dissociation rate constant (kd), the apparent association rate constant (kₐ) and the apparent dissociation equilibrium constant (KD) were calculated using one-to-one Langmuir binding model with BIAcore T100 evaluation Software version 1.1.

Sequence of VEGF (as used in the VEGFR competition ELISA) (P15692 whole entry): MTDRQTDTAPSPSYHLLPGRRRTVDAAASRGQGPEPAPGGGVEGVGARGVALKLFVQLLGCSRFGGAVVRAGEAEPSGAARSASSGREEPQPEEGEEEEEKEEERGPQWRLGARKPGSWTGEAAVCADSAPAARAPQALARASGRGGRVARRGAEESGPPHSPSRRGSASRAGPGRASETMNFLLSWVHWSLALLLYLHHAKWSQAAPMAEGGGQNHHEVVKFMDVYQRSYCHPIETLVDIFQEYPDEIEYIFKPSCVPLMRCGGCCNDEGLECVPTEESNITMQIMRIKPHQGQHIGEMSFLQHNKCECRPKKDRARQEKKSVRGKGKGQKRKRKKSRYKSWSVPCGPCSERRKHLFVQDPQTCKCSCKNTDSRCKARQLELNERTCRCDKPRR

B1: 578-min (scFv)
scFv: EIVMTQSPSTLSASVGDRVIITCQASEIIHSWLAWYQQKPGKAPKLLIYLASTLASGVPSRFSGSGSGAEFTLTISSLQPDDFATYYCQNVYLASTNGANFGQGTKLTVLGGGGGSGGGGSGGGGSGGGGSEVQLVESGGGLVQPGGSLRLSCAASGFSLTDYYYMTWVRQAPGKGLEWVSFIDPDDDPYYATWAKGRFTISRDNSKNTLYLQMNSLRAEDTAVYYCAKGDHNSGWGLDIWGQGTLVTVSS
notes: NH2-VL-linker-VH-COOH; Min graft on FW1.4; also called 820
As to B1, the “Rel. activity hVEGR1 comp. ELISA (EC50Luc [nM]/EC50test [nM])” value (“Rel. activity hVEGR1 comp. ELISA” for short) in experiment [1] was 4.8 ratio.

B2: 567-min (scFv)
chain: EIVMTQSPSTLSASVGDRVIITCQADQSIYIWLSWYQQKPGKAPKLLIYKASTLESGVPSRFSGSGSGAEFTLTISSLQPDDFATYYCQNNAHYSTNGGTFGQGTKLTVLGGGGGSGGGGSGGGGSGGGGSEVQLVESGGGLVQPGGSLRLSCAASGFSLSDYYMCWVRQAPGKGLEWVSCLDYFGSTDDASWAKGRFTISRDNSKNTLYLQMNSLRAEDTAVYYCAKTDDSRGWGLNIWGQGTLVTVSS
In the case of B2, in experiment [1], the “Rel. activity hVEGR1 comp. ELISA” value was found to be 57 ratio.

B3: 509-maxII (scFv)
chain: EIVMTQSPSTLSASVGDRVIITCQASQNIRIWLSWYQQKPGKAPKLLIYKASTLESGVPSRFSGSGSGTEFTLTISSLQPDDFATYYCQNNAHYSTNGGTFGQGTKLTVLGGGGGSGGGGSGGGGSGGGGSEVQLVESGGGLVQPGGSLRLSCTASGFSLSSYYMSWVRQAPGKGLEWVGILDYVGDTDYASWAKGRFTISKDASKNTVYLQMNSLRAEDTAVYYCARTDDSRGWGLNIWGQGTLVTVSS
In general, Kd refers to the concentration at which binding is half-saturated. A word on the koff: it is a measure of how fast the partners let go of each other. In general, kon refers to the second-order rate constant of association. On to B3, for which, in experiment [2], the dissociation constant Kd was determined as 3.37 nM, the koff worked out at 0.00282 s⁻¹ and the association rate constant (kon) is 838000 M⁻¹ s⁻¹. Further, in experiment [1], the “Rel. activity hVEGR1 comp. ELISA” value is 0.09 ratio.

B4: 509-min (scFv)
scFv: B2 chain with D26S, S28N, Y30R, D162S, F185V, S187D, D190Y
notes: NH2-VL-linker-VH-COOH; Min graft on FW1.4; also called 854
For the molecule B4, in experiment [1], the “Rel. activity hVEGR1 comp. ELISA” value stood at 2.9 ratio.

B5: 534-min C-His (scFv, not shown: small tags and cut ends)
scFv: EIVMTQSPSTLSASVGDRVIITCQASQSINWLSWYQQKPGKAPKLLIYKESTLASGVPSRFSGSGSGAEFTLTISSLQPDDFATYYCQNNYDSGNNGFPFGQGTKLTVLGGGGGSGGGGSGGGGSGGGGSEVQLVESGGGLVQPGGSLRLSCAASGFSLSYYYMSWVRQAPGKGLEWVSIIGPGDYTDYASWAKGRFTISRDNSKNTLYLQMNSLRAEDTAVYYCAKGDDNSGWGEDIWGQGTLVTVSS
notes: Min graft with C-His in its name; also called 807
B5: in experiment [2], the Kd was found to be 34.1 nM, the koff turned out to be 0.00921 s⁻¹ and the on-rate constant (kon) is 271000 M⁻¹ s⁻¹.

B6: 511-min (scFv)
scFv: EIVMTQSPSTLSASVGDRVIITCQASQSINIWLSWYQQKPGKAPKLLIYRASTLASGVPSRFSGSGSGAEFTLTISSLQPDDFATYYCQANYAYSAGYGAAFGQGTKLTVLGGGGGSGGGGSGGGGSGGGGSEVQLVESGGGLVQPGGSLRLSCAASGFSLNTYYMNWVRQAPGKGLEWVSIIAPDDTTYYASWAKSRFTISRDNSKNTLYLQMNSLRAEDTAVYYCAKSGDTTAWGADIWGQGTLVTVSS
notes: NH2-VL-linker-VH-COOH; Min graft on FW1.4; also called 801
B6: in experiment [2], the Kd is 2.53 nM, the off-rate (koff) amounted to 0.00128 s⁻¹ and the on-rate (kon) was determined as 505000 M⁻¹ s⁻¹. Further, in experiment [1], the “Rel. activity hVEGR1 comp. ELISA” value was 0.7 ratio.
